{
  "source": "paper doi:10.1101/2024.02.01.578502",
  "about": "(bioRxiv, 2024)",
  "molecules": {"B1": {"name": "dihydrolipoyl dehydrogenase (E3) dimer (enzyme, UniProt P09623 36-509, looked up)", "chain": "ADQPIDADVTVIGSGPGGYVAAIKAAQLGFKTVCIEKNETLGGTCLNVGCIPSKALLNNSHYYHMAHGKDFASRGIEMSEVRLNLEKMMEQKSNAVKALTGGIAHLFKQNKVVRVNGYGKITGKNQVTATKADGSTEVINTKNILIATGSEVTPFPGITIDEDTVVSSTGALSLKKVPEKMVVIGAGVIGVELGSVWQRLGADVTAVELLGHVGGIGIDMEVSKNFQRILQKQGFKFKLNTKVIGATKKSDGNIDVSIEAASGGKAEVITCDVLLVCIGRRPFTQNLGLEELGIELDPRGRIPVNTRFQTKIPNIYAIGDVVAGPMLAHKAEDEGIICVEGMAGGAVHIDYNCVPSVIYTHPEVAWVGKSEEQLKEEGIEYKVGKFPFAANSRAKTNADTDGMVKILGQKSTDRVLGAHIIGPGAGEMINEAALALEYGASCEDIARVCHAHPTLSEAFREANLAASFGKAINF"}},
  "assay_in_all_cases": "cryo-EM structure",
  "key": {"[1]": {"molecular_target": "dihydrolipoyl transacetylase (E2) (porcine (endogenous in porcine heart mitochondria))"}, "cryo-EM structure": {"molecular_target": "the molecule itself"}, "[2]": {"molecular_target": "dihydrolipoamide dehydrogenase-binding protein (E3BP) (porcine (endogenous in porcine heart mitochondria))"}},
  "data": [
    {"molecule": "dihydrolipoyl transacetylase (E2) (enzyme)", "values": [
      {"measurement": "stoichiometry N", "setting": "[1]", "result": 60}
    ]},
    {"molecule": "pyruvate dehydrogenase (E1) α2β2 heterotetramer (from UniProt P29804 31-390) (complex)", "values": [
      {"measurement": "N, LD per E1 heterotetramer", "setting": "[1]", "result": 1},
      {"measurement": "N, PSBD per E1 heterotetramer", "setting": "[1]", "result": 1},
      {"measurement": "percent of E1 heterotetramers with additional density (LD)", "setting": "[1]", "result": 82, "unit": "%"},
      {"measurement": "ratio of E1 with LD bound to E1 without LD bound", "setting": "[1]", "result": 4.5, "unit": "times"}
    ]},
    {"molecule": "B1", "values": [
      {"measurement": "stoichiometry N", "setting": "cryo-EM structure", "result": 2},
      {"measurement": "stoichiometry N", "setting": "[2]", "result": 1}
    ]}
  ]
}
